Results as given in patent US20220242943A1 (Regeneron, published 2022).
Read-outs that look alike come from different tables or passages of the source.

B3: mouse PDGF-BB (ligand, UniProt P31240 82-190, looked up)
chain: SLGSLAAAEPAVIAECKTRTEVFQISRNLIDRTNANFLVWPPCVEVQRCSGCCNNRNVQCRASQVQMRPVQVRKIEIVRKKPIFKKATVTLEDHLACKCETIVTPRPVT
B4: Sino Biologics cynomolgus PDGF-BB Fc tag (Fc fusion, cynomolgus monkey, not shown: a dimerising Fc or GST)
chain: SLGSLTVAEPAMIAECKTRTEVFEISRRLIDRTNANFLVWPPCVEVQRCSGCCNNRNVQCRPTQVQLRPVQVRKIEIVRKKPIFKKATVTLEDHLACKCETVAAARPVT
B5: cynomolgus monkey (Macaca fascicularis) PDGF-BB (ligand)
chain: SLGSLTVAEPAMIAECKTRTEVFEISRRLIDRTNANFLVWPPCVEVQRCSGCCNNRNVQCRPTQVQLRPVQVRKIEIVRKKPIFKKATVTLEDHLACKCETVAAARPVT

Experiments:
[1] = molecular target: B5; test: SPR (Bia-core), 37 C as headed; 37 C as headed
[2] = molecular target: T1, human PDGF-AB (human, UniProt P04085 87-211); test: cell-based or functional assay
[3] = molecular target: B5; test: cell-based or functional assay
[4] = molecular target: B3; test: SPR, captured mAb, 37 C
Protocol: (§1) The equilibrium dissociation constants (KD values) for human and mouse PDGF-B binding to purified anti-PDGF-B monoclonal antibodies of this disclosure were determined using a real-time surface plasmon resonance (SPR) biosensor instrument, MASS-1. All binding studies were performed in 10 mM HEPES, 300 mM NaCl, 3 mM EDTA, 1 μg/mL Heparin, and 0.05% v/v Surfactant Tween-20, pH 7.4 (HBS-T) running buffer at 25° C. and 37° C. […] The HCA sensor surface was first derivatized by amine coupling the monoclonal mouse anti-human Fc antibody (GE, #BR100839) and anti-PDGF-B monoclonal antibodies were individually captured. […] Kinetic association (kₐ) and dissociation (kd) rate constants were determined by fitting the real-time binding sensorgrams to a 1:1 binding model with mass transport limitation using Scrubber 2.0c software. Binding dissociation equilibrium constant (KD) and dissociative half-life (t½) for different anti-PDGF-B monoclonal antibodies were calculated from the kinetic rate constants as: […]

[5] = molecular target: T2, rat PDGF-BB (rat, UniProt Q05028 74-182); test: SPR (Biacore T200 or MASS-2), mAb captured by anti-human Fc, 25 C
T2 construct: also called rPDGF-BB
Protocol: (§2) All binding studies were performed in 10 mM HEPES, 300 mM NaCl, and 0.05% v/v Surfactant Tween-20, pH 7.4 (HBS-P) running buffer at 25° C.
(§3) The association rate (kₐ) and dissociation rate (kd) were determined by fitting the real-time binding sensorgrams to a 1:1 binding model with mass transport limitation using Scrubber 2.0c curve-fitting software. Binding dissociation equilibrium constant (KD) and dissociative half-life (t½) were calculated from the kinetic rates as: […]

[6] = molecular target: B5; test: as above
Protocol: as §2, §3

[7] = molecular target: B5; test: SPR (Bia-core), 37 C as headed
[8] = molecular target: B3; test: SPR (Bia-core), 37 C as headed
[9] = molecular target: B3; test: SPR, 37 C (listed in PK study table)
[10] = molecular target: T1, human PDGF-AB; test: cell-based or functional assay; remark: listed apart in the source
[11] = molecular target: T1, human PDGF-AB; test: cell-based or functional assay; remark: listed apart in the source
[12] = molecular target: B4; test: SPR 25C, mAb captured on anti-hFc; analyte Monkey PDGF-BB Fc homodimer-mouse Fc (IgG1) tag (Sino Biological)
Protocol: The sample was injected at 25 uL/minute for 3 minutes and the dissociation was monitored for 10 minutes. The kinetics parameters were evaluated by fitting the real time data using 1:1 binding model with mass transport limitation.

[13] = molecular target: Cynomolgus monkey PDGF-BB (cynomolgus monkey (Macaca fascicularis), UniProt A0A2K5UX81 82-190); test: cell-based or functional assay
[14] = molecular target: T3, mouse PDGF-BB (mouse, UniProt P31240 82-190, limits assumed); test: SPR MASS-1, captured mAb, 37C
T3 construct: also called mPDGF-BB; mPDGF-B
Protocol: as §1

[15] = molecular target: T4, human PDGF-AB (human, UniProt P04085 87-211); test: blocking ELISA: 100 pM Biot-PDGF-AB on 1 ug/ml hPDGFRb-mmH
T4 construct: also called hPDGF-AB; hPDGF AB

[16] = molecular target: T5, human PDGFRβ on HEK293/SRE-luc/hPDGFRβ cells (human, UniProt P09619 33-1106); test: cell-based or functional assay
[17] = molecular target: T5, human PDGFRβ on HEK293/SRE-luc/hPDGFRβ …; test: cell-based or functional assay; remark: listed apart in the source
[18] = molecular target: mfPDGFRβ-ecto/hPDGFRb-cyto (monkey (mf); human, UniProt P09619 554-1106); test: cell-based or functional assay
[19] = molecular target: B3; test: SPR, captured mAb, 25 C
Protocol: as §1

[20] = molecular target: B5; test: SPR (Bia-core), 37 C as headed; remark: listed apart in the source
[21] = molecular target: B3; test: SPR (Bia-core), 37 C as headed; remark: listed apart in the source
[22] = molecular target: B5; test: SPR (Bia-core), 37 C as headed; 37 C as headed; remark: listed apart in the source
[23] = molecular target: B5; test: cell-based or functional assay; remark: listed apart in the source
[24] = molecular target: B3; test: cell-based or functional assay

T5 sequence (P09619 33-1106): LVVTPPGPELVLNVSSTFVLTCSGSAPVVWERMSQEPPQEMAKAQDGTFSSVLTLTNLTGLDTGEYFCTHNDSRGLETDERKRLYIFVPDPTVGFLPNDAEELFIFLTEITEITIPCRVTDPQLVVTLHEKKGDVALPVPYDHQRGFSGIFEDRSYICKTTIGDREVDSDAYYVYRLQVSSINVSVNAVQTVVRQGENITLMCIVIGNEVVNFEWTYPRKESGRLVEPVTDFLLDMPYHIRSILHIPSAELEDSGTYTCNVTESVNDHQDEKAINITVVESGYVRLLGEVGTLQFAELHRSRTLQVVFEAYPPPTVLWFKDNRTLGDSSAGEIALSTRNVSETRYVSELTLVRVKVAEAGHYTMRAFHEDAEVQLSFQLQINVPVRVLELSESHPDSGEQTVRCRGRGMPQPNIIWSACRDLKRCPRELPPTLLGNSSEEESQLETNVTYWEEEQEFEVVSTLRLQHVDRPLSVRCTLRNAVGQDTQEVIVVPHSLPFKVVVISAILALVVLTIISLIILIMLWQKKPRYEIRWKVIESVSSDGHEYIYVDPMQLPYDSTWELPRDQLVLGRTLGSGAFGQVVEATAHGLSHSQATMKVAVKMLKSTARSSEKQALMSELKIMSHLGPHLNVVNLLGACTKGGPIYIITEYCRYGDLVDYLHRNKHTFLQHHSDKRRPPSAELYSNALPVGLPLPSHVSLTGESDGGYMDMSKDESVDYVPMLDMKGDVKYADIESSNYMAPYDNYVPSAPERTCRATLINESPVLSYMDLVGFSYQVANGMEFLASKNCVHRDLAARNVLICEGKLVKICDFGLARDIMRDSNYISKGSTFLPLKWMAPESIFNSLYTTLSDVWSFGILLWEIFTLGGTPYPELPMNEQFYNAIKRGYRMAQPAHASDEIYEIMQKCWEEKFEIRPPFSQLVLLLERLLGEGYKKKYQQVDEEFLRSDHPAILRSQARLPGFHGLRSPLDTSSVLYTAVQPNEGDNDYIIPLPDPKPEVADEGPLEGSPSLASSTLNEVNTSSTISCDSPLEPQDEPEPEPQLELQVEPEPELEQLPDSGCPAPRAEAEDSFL
Sequence of mfPDGFRβ-ecto/hPDGFRb-cyto (P09619 554-1106): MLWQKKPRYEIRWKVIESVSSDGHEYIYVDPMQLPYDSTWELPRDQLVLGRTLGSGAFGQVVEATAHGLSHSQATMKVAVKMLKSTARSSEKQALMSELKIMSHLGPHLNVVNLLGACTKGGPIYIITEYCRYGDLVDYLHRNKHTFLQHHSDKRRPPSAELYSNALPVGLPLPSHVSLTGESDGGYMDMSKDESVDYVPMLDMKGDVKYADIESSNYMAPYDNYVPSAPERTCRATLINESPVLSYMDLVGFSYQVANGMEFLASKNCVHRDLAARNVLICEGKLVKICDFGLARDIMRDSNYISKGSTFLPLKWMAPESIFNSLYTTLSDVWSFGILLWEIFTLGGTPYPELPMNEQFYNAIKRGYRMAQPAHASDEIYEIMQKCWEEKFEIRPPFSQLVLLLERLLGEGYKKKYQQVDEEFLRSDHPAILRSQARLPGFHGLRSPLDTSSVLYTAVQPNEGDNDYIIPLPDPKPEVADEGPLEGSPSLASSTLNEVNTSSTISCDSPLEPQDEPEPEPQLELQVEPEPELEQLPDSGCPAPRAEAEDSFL

B1: H4H13132P (antibody, human IgG4 S228P, kappa, V domains shown)
VH: QVQLVQSGAEVKKPGSSVKVSCKASGGTFSSYAISWVRQAPGQGLEWMGGIIPIFGTANYAQKFQGRVTITTDESTSTAYMELSSLRSEDTAVYYCAREGYGDYYFGMDVWGQGTTVTVSS
VL: not shown
notes: also called REGN15171; anti-PDGF-B antibody 2
B1 was tested, and the Kd [1] was 0.00967 nM, the “(%) Inhibition, calcium flux in HLF cells, 1 nM ligand, Full Time Course” value [2] was 63% and the “IC50 (head printed IC51), SRE-luciferase, 500 pM mfPDGFBB” value [3] was 8.9e-09 M. The Kd [4] was 0.0867 nM, the Kd [5] was 0.103 nM and the t½ [5] was 0.683 h. For the same binder, the Kd [6] was 0.00967 nM, the t½ [6] was 4.62 h and the t1/2 [7] was 4.62 h. The Kd [8] was 0.0867 nM, the Kd [9] was 0.0867 nM and the “A647 Intensity, internalization in PASMC, pre-blocking Ab: NA” value [10] was 772000. The “A647 Intensity, internalization in NHLF, pre-blocking Ab: NA” value [11] was 679000.

B2: H4H13132P (antibody, human IgG4 S228P, kappa, V domains shown)
VH: QVQLVQSGAEVKKPGSSVKVSCKASGGTFSSYAISWVRQAPGQGLEWMGGIIPIFGTANYAQKFQGRVTITTDESTSTAYMELSSLRSEDTAVYYCAREGYGDYYFGMDVWGQGTTVTVSS
VL: not shown
notes: also called REGN15171
B2 was tested, and the Kd [12] was 0.0256 nM, the “t½” value [12] was 18.4 h and the “IC50, luciferase in HEK293/SRE-Luc/mfPDGFRβ-ecto/hPDGFRb-cyto cells” value [13] was 0.781 nM. It also gave a Kd [14] of 0.0867 nM and an IC50 [15] of 14 nM.

For B3, the “EC50 of ligand, SRE-luciferase in HEK293/SRE-luc/hPDGFRβ cells” value (from here on “EC50 … in HEK293/SRE-luc/hPDGFRβ cells”) [16] was 0.93 nM and the “EC50 … in HEK293/SRE-luc/hPDGFRβ cells” value [17] was 0.93 nM.

In the case of B4, the “EC50, luciferase in HEK293/SRE-Luc/mfPDGFRβ-ecto/hPDGFRb-cyto cells” value [18] is reported as 0.167 nM.

With B5 the “EC50 … in HEK293/SRE-luc/hPDGFRβ cells” value [16] was 0.064 nM and the “EC50 … in HEK293/SRE-luc/hPDGFRβ cells” value [17] was 0.064 nM.

B6: H4H13145P (antibody, human IgG4 S228P, kappa, V domains shown)
VH: QVQLVQSGTEVKKPGASVKVSCKASGYTYGAYAISWVRQAPGQGLEWMGWISAYNGNTNYAQKFQDRVTMTTDTSTNTAYMELRGLKSDDTAVYFCARAWNSFDYWGQGTLVTVSS
VL: not shown
notes: also called REGN13335; anti-PDGF-B antibody 1
B6 was tested, and the Kd [19] was ≤ 0.0023 nM, the Kd [4] was 0.000954 nM and the Kd [5] was 0.125 nM. The t½ [5] was 0.682 h, the Kd [6] was 0.0161 nM and the t½ [6] was 12.8 h. It also gave a Kd [9] of 0.000954 nM, a t1/2 [20] of 12.8 h and a Kd [21] of 0.000954 nM. The Kd [22] was 0.0161 nM, the “A647 Intensity, internalization in PASMC, pre-blocking Ab: NA” value [10] was 2.4e+07 and the “IC50 (head printed IC51), SRE-luciferase, 500 pM mfPDGFBB” value [23] was 3.2e-10 M. The “IC50, SRE-luciferase, 600 pM mPDGFBB” value [24] was 4.5e-10 M and the “A647 Intensity, internalization in NHLF, pre-blocking Ab: NA” value [11] was 1.9e+07.

B7: H4H13145P (antibody, human IgG4 S228P, kappa, V domains shown)
VH: QVQLVQSGTEVKKPGASVKVSCKASGYTYGAYAISWVRQAPGQGLEWMGWISAYNGNTNYAQKFQDRVTMTTDTSTNTAYMELRGLKSDDTAVYFCARAWNSFDYWGQGTLVTVSS
VL: not shown
notes: also called REGN13335
B7 was tested, and the Kd [12] was 0.0268 nM, the “t½” value [12] was 17.8 h and the Kd [14] was 0.000954 nM.
